Source: patent publication US8986655B2, “Compositions, devices, and methods related to prostate-specific membrane antigen” (The Regents of the University of California, priority 2009, dated 2015)

Assays:
PSMA monomer = PSMA monomer (Homo sapiens, UniProt Q04609); assay: Phage-displayed ELISA, binding to PSMA monomer; settings: phage-displayed peptide, 1 μg/mL PSMA monomer, ELISA (FIG. 5)
Excerpt: (§1) An eight residue long peptide with the amino acid sequence […] [SEQ ID NO: 1], was previously identified as a PSMA binder from an 8-mer (X8) library. […] (also referred to as peptide 1 in the Figures) to PSMA as reported previously. In addition to […] [SEQ ID NO: 1], the inventors also examined a longer 13-mer peptide, selected from a disulfide-constrained library with the amino acid sequence […] [SEQ ID NO: 3] (also referred to as peptide 2 in the Figures).

homodimeric PSMA = homodimeric PSMA (Homo sapiens, UniProt Q04609); assay: Phage-based ELISA, binding to PSMA dimer; settings: for binding to PSMA dimer: phage-displayed peptide, 1 μg/mL PSMA dimer, ELISA (FIG. 5); for relative binding affinity to PSMA compared with parent peptide 2: 1 μg/mL homodimeric PSMA, half of the binding time (FIG. 1A)
Excerpt: as §1
The five peptides [SEQ ID NOs: 4-8] […] These peptides were assayed for binding to 1 μg/mL of homodimeric PSMA, a concentration 10-fold less than the parent peptide required for binding assays. This higher stringency can better distinguish very high from moderate affinity binders. […] FIG. 1A illustrated peptides selected from homolog shotgun scanning library. FIG. 1B illustrates relative affinity of selected peptide 3 [SEQ ID NO: 4] versus the previous highest affinity peptide 1 [SEQ ID NO: 2]. FIG. 1C illustrates a bar graph showing that 20 nM phage displaying peptide 1 [SEQ ID NO: 2] has binding affinity similar to that of 0.2 nM phage displaying peptide 3 [SEQ ID NO: 4], and 20 nM phage displaying parent peptide 2 [SEQ ID NO: 3] has binding affinity similar to 0.02 nM phage displaying peptide 3 [SEQ ID NO: 4].
A phage-based ELISA was performed using purified peptide 10 to determine whether the peptide enhances the binding to immobilized PSMA. […] Here, the graph illustrates results for the phage displaying peptide 3 [SEQ ID NO.4], wrapped with peptide 10 binding 1 μg/mL PSMA dimer

[1] = target: transferrin receptor (TfR) (Homo sapiens, UniProt P02786); assay: Cross-reactivity for binding transferrin receptor; settings: homolog of PSMA (54% sequence identical)
Excerpt: It should be noted that the two substitutions incorporated in the sequence of peptide 3 [SEQ ID NO: 4] were L1S and D2E. The serine substitution removes a hydrophobic leucine residue, which provides the peptide with a more polar side chain, which can accept and donate hydrogen bonds (H-bonds). The hydroxyl group likely improves the surface complementarity at the binding interface with PSMA by creating new H-bonding contacts with the protein backbone, or by participating in an extended H-bonding network directly or indirectly through water to other side chains at the binding site. The selection of Glu in place of Asp merely extends the side chain length by one carbon unit. This substitution maintains contribution of the carboxylate functionality, and the length extension of 1.5 Å could allow for new H-bonding or salt-bridging opportunities. Clearly, the core sequence of the selected peptides is critical for the molecular recognition of PSMA, and this core remained conserved in the tightest binding peptides.

PSMA = PSMA (Homo sapiens, UniProt Q04609); settings: phage-displayed ELISAs, QCM, EIS; as reported previously; cited from earlier work
[2] = phage-based ELISA with 20 nM phage, phage concentration versus HRP activity (FIGS. 1B, 1C)

Sequence of homodimeric PSMA (Q04609 whole entry): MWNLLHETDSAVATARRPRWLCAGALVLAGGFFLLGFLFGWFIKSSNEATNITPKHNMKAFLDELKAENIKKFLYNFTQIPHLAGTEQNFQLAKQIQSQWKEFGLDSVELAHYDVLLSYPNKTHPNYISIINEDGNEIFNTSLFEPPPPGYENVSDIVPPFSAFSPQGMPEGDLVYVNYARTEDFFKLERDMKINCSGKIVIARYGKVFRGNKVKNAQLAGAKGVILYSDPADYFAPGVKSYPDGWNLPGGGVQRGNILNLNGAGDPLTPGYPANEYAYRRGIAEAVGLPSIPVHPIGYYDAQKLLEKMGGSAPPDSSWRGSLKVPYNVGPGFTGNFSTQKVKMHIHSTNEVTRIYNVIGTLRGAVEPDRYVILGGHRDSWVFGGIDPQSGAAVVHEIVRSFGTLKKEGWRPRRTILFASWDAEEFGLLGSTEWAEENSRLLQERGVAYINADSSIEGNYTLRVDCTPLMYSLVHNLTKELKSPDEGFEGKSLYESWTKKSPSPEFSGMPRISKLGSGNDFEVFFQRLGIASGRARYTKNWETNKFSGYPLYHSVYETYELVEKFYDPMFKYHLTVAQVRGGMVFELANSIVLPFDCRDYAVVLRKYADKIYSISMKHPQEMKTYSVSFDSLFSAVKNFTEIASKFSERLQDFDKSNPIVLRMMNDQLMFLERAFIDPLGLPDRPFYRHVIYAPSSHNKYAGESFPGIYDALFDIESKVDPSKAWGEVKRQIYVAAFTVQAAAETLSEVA
Sequence of PSMA monomer (Q04609 whole entry): as above
Sequence of PSMA (Q04609 whole entry): as above
Sequence of transferrin receptor (TfR) (P02786 whole entry, species assumed): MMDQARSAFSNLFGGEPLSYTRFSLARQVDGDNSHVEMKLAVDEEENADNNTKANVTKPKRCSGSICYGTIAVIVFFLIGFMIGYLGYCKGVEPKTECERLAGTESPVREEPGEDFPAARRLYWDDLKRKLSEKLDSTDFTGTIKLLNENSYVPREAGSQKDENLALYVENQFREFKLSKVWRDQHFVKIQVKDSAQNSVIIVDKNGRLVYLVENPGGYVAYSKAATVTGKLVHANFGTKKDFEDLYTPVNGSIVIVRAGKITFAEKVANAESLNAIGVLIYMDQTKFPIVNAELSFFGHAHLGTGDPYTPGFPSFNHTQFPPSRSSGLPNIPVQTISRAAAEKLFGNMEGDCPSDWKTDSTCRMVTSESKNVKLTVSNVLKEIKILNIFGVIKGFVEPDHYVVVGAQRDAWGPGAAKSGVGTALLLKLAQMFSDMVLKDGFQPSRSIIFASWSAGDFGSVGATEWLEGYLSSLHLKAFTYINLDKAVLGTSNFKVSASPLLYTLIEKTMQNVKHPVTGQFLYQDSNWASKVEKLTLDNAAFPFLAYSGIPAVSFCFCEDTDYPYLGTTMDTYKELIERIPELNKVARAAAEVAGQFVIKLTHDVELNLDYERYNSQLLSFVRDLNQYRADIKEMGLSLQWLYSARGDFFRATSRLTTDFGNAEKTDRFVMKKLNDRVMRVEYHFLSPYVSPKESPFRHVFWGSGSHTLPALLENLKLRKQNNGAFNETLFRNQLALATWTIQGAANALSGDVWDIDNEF

LDCVEVFQNSCDW [peptide 2, 13-mer peptide selected from a disulfide-constrained library; parent of the homolog library]
binding to PSMA monomer (PSMA monomer): fails to bind the monomer with significant affinity | binding to PSMA monomer (PSMA monomer; listed as Peptide 2): does not bind PSMA monomer with appreciable affinity | binding to PSMA dimer (homodimeric PSMA): only binds to dimeric PSMA

SDCVEVFQNSCDW [compound 4, peptide from the homolog shotgun scanning library]
relative binding affinity to PSMA compared with parent peptide 2 (homodimeric PSMA): higher affinity towards the target

SECVEVFQNSCDW [peptide 3, peptide from the homolog shotgun scanning library]
cross-reactivity for binding transferrin receptor (TfR) [1]: no detectable cross-reactivity | relative binding affinity to PSMA compared with parent peptide 2 (homodimeric PSMA): higher affinity towards the target | phage concentration with binding affinity similar to 20 nM phage displaying parent peptide 2 (homodimeric PSMA; PSMA 1 μg/mL (FIG. 1C)): 0.02 nM | phage concentration with binding affinity similar to 20 nM phage displaying peptide 1 (homodimeric PSMA; PSMA 1 μg/mL (FIG. 1C)): 0.2 nM | fold higher affinity for PSMA compared to parent peptide 2 (homodimeric PSMA; [2]): ≈ 1000 times | fold higher affinity for PSMA than peptide 1 (homodimeric PSMA; [2]): ≈ 100 times

CALCEFLG (Synthetic oligopeptiide) [peptide 1, reference compound]
binding to PSMA (PSMA): strong binding | binding to PSMA monomer (PSMA monomer): efficient binding | apparent affinity for dimeric PSMA relative to the monomeric isoform (homodimeric PSMA; phage-displayed ELISA, dimer versus monomer): exceeds affinity for the monomeric isoform | binding to PSMA dimer (homodimeric PSMA): efficient binding | binding to PSMA dimer (homodimeric PSMA; listed as Peptide 1): higher affinity to PSMA dimer than peptide 2
